Assay results published in US20200031892A1, “COMPOSITION COMPRISING NEUREGULIN FOR ORGAN PERFUSION, PRESERVATION OR REPERFUSION, AND USE THEREOF” (Zensun (Shanghai) Science & Technology, Co., Ltd., priority 2007, published 2020).

What was measured:
[1] = test system: cardiomyocytes from myocardial infarcted rats; test: Relaxation of cardiomyocytes isolated from myocardial infarcted rats treated with neuregulin by osmotic pump; type: in vivo, rat; conditions: myocytes from MI rats treated with neuregulin compared with MI rats treated with vehicle
Method: Wistar male rats (Shanghai Animal Center of Chinese Academy of Science), which weighed 200±20 g, were anesthetized by intraperitoneally injecting 100 mg/kg (drug/body weight) of ketamine. The neck and chest were depilated and sanitized. An incision Was made in the middle front neck to expose the tracheae. An 18G catheter overneedle was inserted into the tracheae between the 3rd and 5th cartilage of tracheae. After the needle was drawn out, a plastic cannula was pushed into the trachea 1-2 cm and fixed to connect the Rodent Ventilator (SAR-830/P ventilator—Inspiratory flow rate, 1 ml/100 g/breath; Respiratory rate, 60 breaths/min). Another incision was made on the left front chest. The skin was blunt dissected to expose the fourth and fifth rib, then the fourth rib was cut by elbowed mosquito forceps. The ventilator (as described above) was linked to the cannula and turned on, and the heart was exposed to check the status of lung and heart. The pericardium was rived off to identify the left atria and the pulmonary arterious cone after the heart was exteriorized through the incision. The left ventricle anterior descending coronary artery between them was ligated tight with 6/0 medical suture before the heart was replaced into the thorax. The thoracic wall was stitched. The ventilator was blocked to full fill the lung. […]

[2] = test system: patients with stable chronic heart failure; test: Haemodynamics in patients with stable chronic heart failure after continuous intravenous infusion of neuregulin; type: in vivo, human; conditions: 0.2 μg/kg/hour i.v. infusion for 6 hours
Method: 6 patients with stable chronic heart failure were treated with continuous intravenous infusion of neuregulin at 0.2 μg/kg/hour (drug weight/body weight/hour) for 6 hours. A baseline right heart catheterisation was performed and Swan Ganz catheter left in situ to monitor haemodynamics for 24 hours.

B1: NRG: NRG having the sequence of SEQ ID NO:1, which corresponds to amino acids 177-237 of human NRG-1 (protein, listed as Homo sapiens)
chain: SHLVKCAEKEKTFCVNGGECFMVKDLSNPSRYLCKCPNEFTGDRCQNYVMASFYKAEELYQ
- relaxation of myocytes (time to relax to half of the maximum length, FIG. 1) [1]: relax much faster
- increase of average cardiac output ([2]; 2 hours after infusion vs baseline 3.7±1.0 L/min): 29.7%
- systemic vascular resistance (SVR) ([2]; after infusion (baseline 1679.3±336.3)): 1199.5±127.6 dynes-sec-cm^−5
- average cardiac output ([2]; at 2 hours after infusion (baseline 3.7±1.0)): 4.8 ± 0.8 L/min
- fall of systemic vascular resistance (SVR) ([2]; vs baseline 1679.3±336.3): 29%
